{"source": "paper PMC12051234", "about": "“NrdR in Streptococcus and Listeria spp.: DNA Helix Phase Dependence of the Bacterial Ribonucleotide Reductase Repressor” (Molecular Microbiology, 2024)", "proteins": {"B1": {"name": "Streptococcus pneumoniae NrdR (natural protein, Streptococcus pneumoniae TIGR4, UniProt P67318 1-157, looked up)", "chain": "MRCPKCGATKSSVIDSRQAEEGNTIRRRRECDECQHRFTTYERVEERTLVVVKKDGTREQFSRDKIFNGIIRSAQKRPVSSDEINMVVNRIEQKLRGRNENEIQSEDIGSLVMEELAELDEITYVRFASVYRSFKDVSELESLLQQITQSSKKKKER", "notes": "NrdR, transcriptional repressor of ribonucleotide reductase genes, S. pneumoniae TIGR4; the nrdR gene (SP_1713, AAK75791) cloned in pET30a(+) between NdeI and XhoI; molecular mass including the hexa-histidine tag 19.4 kDa; Oligomeric state depends on the nucleotides added (none, ATP, dATP + ATP); also called SpnNrdR; source: E. coli BL21(DE3), purified (HisTrap FF Ni-Sepharose, desalting); not …"}, "B2": {"name": "Listeria monocytogenes NrdR (natural protein, UniProt B8DHI6 1-154, looked up)", "chain": "MRCPTCQYNGTRVVDSRPADDGNSIRRRRECEKCGFRFTTFEKVEESPLIVVKKDGAREEFAREKVRRGLIRACEKRPVSAEQIEEIVNEVERELRNIGDSEIASDLIGEKVMNKLANLDEVAYVRFASVYRQFKDISVFVEELKDLMEKNKDR", "notes": "NrdR, transcriptional repressor of ribonucleotide reductase genes, L. monocytogenes serotype 1/2a str; S10403S; molecular mass including the hexa-histidine tag 19 kDa; Oligomeric state depends on the nucleotides added; also called LmoNrdR; L. monocytogenes NrdR; source: E. coli BL21(DE3), purified (HisTrap FF Ni-Sepharose, desalting); not shown: His6, C-terminal, kept"}}, "key": {"[1]": {"biological_target": "the molecule itself", "assay": "SEC; SpnNrdR 50 uM incubated with 0.5 mM ATP, 0.5 mM dATP and 2.5 mM MgCl; ATP and dATP 0.1 mM each in the buffer; Superdex S200 Increase, 4 C; 25 mM HEPES pH 7.2, 2.5 mM MgCl2, 15% glycerol, 250 mM NaCl, 0.1 mM TCEP"}, "[2]": {"biological_target": "the molecule itself", "assay": "SEC; LmoNrdR 50 uM incubated with dATP + ATP and 5 mM MgCl; 0.1 mM of each nucleotide in the buffer; Superdex S200 Increase, 4 C; 25 mM Bis-Tris Propane pH 6.5, 5% glycerol, 5 mM MgCl2, 100 mM KCl, 1 mM DTT"}, "[3]": {"biological_target": "the molecule itself", "assay": "SEC; LmoNrdR 50 uM incubated with 1 mM ATP and 5 mM MgCl; 0.2 mM ATP in the buffer; Superdex S200 Increase, 4 C; 25 mM Bis-Tris Propane pH 6.5, 5% glycerol, 5 mM MgCl2, 100 mM KCl, 1 mM DTT"}, "[4]": {"biological_target": "the molecule itself", "assay": "SEC; LmoNrdR 50 uM, no nucleotides in protein or buffer (apo); Superdex S200 Increase, 4 C; 25 mM Bis-Tris Propane pH 6.5, 5% glycerol, 5 mM MgCl2, 100 mM KCl, 1 mM DTT; size from a calibration curve of globular standards"}}, "note": "Values joined by “and” are separate entries in the source; they are usually repeats but may differ in a detail not shown here. Equal values may be shown once."}
{"protein": "B1", "values": [{"measurement": "stoichiometry N", "setting": "[1]", "value": 4}]}
{"protein": "B2", "values": [{"measurement": "stoichiometry N", "setting": "[2]", "value": 4}, {"measurement": "stoichiometry N", "setting": "[3]", "value": 8}, {"measurement": "stoichiometry N", "setting": "[4]", "value": "2 and 4"}]}
